Measurements taken from publication PMC10805704, “VCIP135 associates with both the N- and C-terminal regions of p97 ATPase” (The Journal of Biological Chemistry, 2023).

B1: His-tagged VCIP135(744-1221) (domain or fragment, rat, UniProt Q8CF97 744-1221, looked up)
chain: TVSPSTIRDGPSSAPATPTKAPYSPTTSKEKKIRITTNDGRQSMVTLKSSTTFFELQESIAREFNIPPYLQCIRYGFPPKELMPPQAGMEKEPVPLQHGDRITIEILKGKAEGGPSTAAHSAHTVRQEEIAVTGKLSSKELQEQADKEMYSLCLLATLMGEDVWSYAKGLPHMFQQGGVFYNIMKKTMGMADGKHCTFPHLPGKTFVYNASEDRLELCVDAAGHFPIGPDVEDLVKEAVSQVRAEATTRSRESSPSHGLLKLGSGGVVKKKSEQLHNVTAFQGKGHSLGTASSNPHMDPRARETLAVRKHNTGTDFSNSSIKTEPPVFTAASSNSELIRIAPGVVTMRDGRQIDPDVVEAQRKKLQEMVSSIQASMDKHLRDQSTEQTPSDLSQRKVEAVSSSVRPGNLQTGLPESFSLTGGTENLNTETTDSRVADVLGAAFATRSKAQKENSMEEPEEMDSQDAETTNTTEPMDHS
notes: also called C-terminal half of VCIP135
B2: His-tagged VCIP135(903-1053) (domain or fragment, rat, UniProt Q8CF97 903-1053, looked up)
chain: GEDVWSYAKGLPHMFQQGGVFYNIMKKTMGMADGKHCTFPHLPGKTFVYNASEDRLELCVDAAGHFPIGPDVEDLVKEAVSQVRAEATTRSRESSPSHGLLKLGSGGVVKKKSEQLHNVTAFQGKGHSLGTASSNPHMDPRARETLAVRKH
B3: His-tagged VCIP135(1-390) (domain or fragment, rat, UniProt Q8CF97 1-390, looked up)
chain: MSQPPPPPPLPPPPPPPEAPQTSSSLAAAATPGGLSKRRDRRILSGSCPDPKCQARLFFPASGSVSIECTECGQRHEQQQLLGVEEVTDPDVVLHNLLRNALLGVTGAPKKNTELVKVMGLSNYHCKLLSPILARYGMDKQTGRAKLLRDMNQGELFDCALLGDRAFLIEPEHVNTVGYGKDRSGSLLYLHDTLEDIKRANKSQECLIPVHVDGDGHCLVHAVSRALVGRELFWHALRENLKQHFQQHLARYQALFHDFIDAAEWEDIINECDPLFVPPEGVPLGLRNIHIFGLANVLHRPIILLDSLSGMRSSGDYSATFLPGLIPAEKCTGRDGHLNKPICIAWSSSGRNHYIPLVGIKGAALPKLPMNLLPKAWGVPQDLIKKYIKL
notes: VCIP135, rat, residues 1-390
B4: His-tagged VCIP135(1-743) (domain or fragment, rat, UniProt Q8CF97 1-743, looked up)
chain: MSQPPPPPPLPPPPPPPEAPQTSSSLAAAATPGGLSKRRDRRILSGSCPDPKCQARLFFPASGSVSIECTECGQRHEQQQLLGVEEVTDPDVVLHNLLRNALLGVTGAPKKNTELVKVMGLSNYHCKLLSPILARYGMDKQTGRAKLLRDMNQGELFDCALLGDRAFLIEPEHVNTVGYGKDRSGSLLYLHDTLEDIKRANKSQECLIPVHVDGDGHCLVHAVSRALVGRELFWHALRENLKQHFQQHLARYQALFHDFIDAAEWEDIINECDPLFVPPEGVPLGLRNIHIFGLANVLHRPIILLDSLSGMRSSGDYSATFLPGLIPAEKCTGRDGHLNKPICIAWSSSGRNHYIPLVGIKGAALPKLPMNLLPKAWGVPQDLIKKYIKLEEDGGCVIGGDRSLQDKYLLRLVAAMEEVFMDKHGIHPSLVADVHQYFYRRTGVIGVQPEEVTAAAKKAVMDNRLHKCLLCGALSELHVPPEWLAPGGKLYNLAKSTHGQLRPDKNYSFPLNNLVCSYDPVKDVLLPDYGLSNLTACNWCHGTSVRRVRGDGSIVYLDGDRTNSRSTGGKCGCGFKHFWEGKEYDNLPEAFPITLEWGGRVVRETVYWFQYESDPSLNSNVYDVAMKLVTKHFPGEFGSEILVQKVVHTILHQTAKKNPDDYTPVNIDGAHAQRIGDVQGQELESQLPTKIILTGQKTKTLHKEELNMSKTERTIQQNITEQASVMQKRKTEKLKQEQKGQPR
notes: also called N-terminal half of VCIP135

The binders below were run against T1, endogenous p97 purified from rat liver cytosol, biotinylated (rat (endogenous in rat liver), UniProt P46462 1-806, biotinylated using EZ-Link Sulfo-NHS-LC-biotin (sites not given)) (assay: pull-down; endogenous rat liver p97, biotinylated, immobilised on streptavidin beads; His-tagged VCIP135 or its fragments or mutants in solution; 1 mM AMP-PNP (Figs 1A, 5C, 5D: the indicated nucleotide, 1 mM); 20 mM HEPES, 100 mM KCl, 1 mM MgCl2, 1 mM DTT, 0.5% CHAPS, 10% glycerol, pH 7.4; Western blot with antibodies to p97 and His-tag). Conditions: both partners purified.
T1 construct: p97 ATPase (VCP), endogenous protein purified from rat liver cytosol; Held on streptavidin beads through the biotin; also called p97ATPase; VCP; source: purified from rat liver cytosol
T1 sequence (P46462 whole entry, the tested form may be a part): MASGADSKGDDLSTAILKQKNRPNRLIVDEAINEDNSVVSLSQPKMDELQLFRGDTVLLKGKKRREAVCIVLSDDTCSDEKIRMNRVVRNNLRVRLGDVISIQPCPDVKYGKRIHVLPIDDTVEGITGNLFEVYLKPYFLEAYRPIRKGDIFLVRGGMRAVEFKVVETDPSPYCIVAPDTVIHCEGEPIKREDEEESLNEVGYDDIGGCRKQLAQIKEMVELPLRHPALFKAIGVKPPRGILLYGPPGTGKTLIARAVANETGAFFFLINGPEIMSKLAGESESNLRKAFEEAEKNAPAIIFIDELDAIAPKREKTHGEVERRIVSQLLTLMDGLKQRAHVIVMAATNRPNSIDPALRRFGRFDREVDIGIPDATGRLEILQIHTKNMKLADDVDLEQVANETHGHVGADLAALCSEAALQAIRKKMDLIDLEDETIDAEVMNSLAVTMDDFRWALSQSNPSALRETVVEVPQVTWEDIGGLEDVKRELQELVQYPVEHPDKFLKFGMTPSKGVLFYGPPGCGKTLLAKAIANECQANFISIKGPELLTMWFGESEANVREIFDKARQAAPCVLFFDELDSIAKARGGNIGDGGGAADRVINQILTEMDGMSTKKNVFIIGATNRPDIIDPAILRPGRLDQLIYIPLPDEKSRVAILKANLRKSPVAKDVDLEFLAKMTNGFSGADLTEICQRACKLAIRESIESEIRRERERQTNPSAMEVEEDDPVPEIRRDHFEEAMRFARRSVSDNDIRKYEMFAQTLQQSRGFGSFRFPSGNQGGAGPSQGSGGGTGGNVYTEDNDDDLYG

Binding result, binds:
B1
B2
B3
B4
